According to publication PMC7954794, “Protein context shapes the specificity of SH3 domain-mediated interactions in vivo” (Nature Communications, 2021):

B1: YIR003W (protein, UniProt P40563 1-679, looked up)
Altered inheritance of …: MPSEVTPKVPERPSRRKTSELFPLSGSESGDIKANSEPPTPAGTPNVPTRRPILKAKTMTSFESGMDQESLPKVPLQRPVRRSTTEELNNVMNNTSKELEEIESLISKHNIHNVSRKKSPTSVEEGKVAAIHQNGQRSASDNKTSTNPSPLEKNEHEGAEGNESAISPSNLVNKSNNEVTEHSDSEDLTEKQKVHAALDNEAGDRSHFEEKLIPGDMKVQVDVSKDVEEGSLNALPPSGITESDDKAEKFTKHPESSLEELQKHQEQQEEKIFQNPTDEESTTSLNEKQEGKDNMEVNSQPQGPSDTETVIAATSSNVPSQIASEEENDVPVIPRSRPKKDFEAHVQKEELPNTQEKRVSEECDSTLISTEEESKIPKIPSERPKRRAPPPVPKKPSSRIAAFQEMLQKQQQQDLHNNGNSSATTASADIAKKHTDSSITSDTTKADFTSKLNGLFALPGMVNPGQLPPSLEKKLSSPDTESKLGPQDQSQAKTGPLGGTRRGRGPRGRKLPSKVASVEKIEEDDNTNKIEIFNNWNVSSSFSKEKVLIDTTPGEQAERALDEKSKSIPEEQREQSPNKMEAALCPFELDEKEKLPANAESDPLSQLPQTNAVGNRKAISEESLSPSEAIANRDQNDTTEIQEQQMEDQMEVDMERELSGGYEDVDSALHSEEASFHSL
B2: YOR042W (protein, UniProt Q08412 1-411, looked up)
Ubiquitin-binding protein CUE5: MEEKEGIKDSSLLEKSNVPESINEDISKTTDVDLNSDGKKDNDTSAKDGTPKVEEKVNKSSGIDEDEVVTPAEDAKEEEEEHPPLPARRKSEEEPSKENPILQELKDAFPNLEEKYIKAVIIASQGVLSPAFNALLFLSDPESGKDIELPTQPVRKNPEAPARRRQTQLEQDELLARQLDEQFNSSHSRRRNRDRATRSMHEQRRRRHNPNEREQHHEDSEEEDSWSQFVEKDLPELTDRAGRSLQDTANKVSNWISDAYRRNFASGNEQNDNQHGHQDQQEWEPEIVDLSQGGKNSRPQQPERRRFNSFGVQVGDDSLESHGITLHNEDGFEDDEDVPPQLPTRTKSGESTGKVVAETTYIDTPDTETKKKWQPLPPEPLDTTPTKVNAVSRNKKNPDEDEFLINSDDEM
B3: YIR006C (protein, UniProt P32521 1-1480, looked up)
Actin cytoskeleton-regulatory …: MYNPYQQQGMGYQQQQQQQQQQPNGFYPQQQQGQSSNQPQGQPQPQQQMAFNQPQATGIGGMPQSFGNSFSSMPQQPQTGYNNNGNNGSVYGNGNFGQQPQQQQQQAKPQHTGYVPNSSMPMMNTTGTMPPPNPAQQPQLQSIQPQGTGYYQAANTANVHSVQPLQSQGTGYYVSTPNLISSNQTQQPLQAQGTGYYQSQPQQVPPPQQAQSLQPLKPQQTGFYLQPQNQAPLEPLKPTATGFVNSFANNGLNNDIKIPAIRLSFITAQDQAKFETLFRSIVTNGSNTVSGANCRKILMRSGLPPSQLARIWTLCDTSKAGELLFPEFALAMHLINDVLQGDTIPYELDSKTKNEVSSFIDAINLSIANQDSSANDAPKTPFDEFITAGVQNLQPQPTGYMPQTSFGIPLQSQITGGGVASALNPQSTGFMAPTTFNMSMNTGTPGLNPQITGGAPASMQPNITGNALQPQTTGMMPQTTGMMPQTTGMMPQTSFGVNLGPQLTGGALQSQYTGGYGSVMPQQSGPASMPNLSFNQQGLQSQLTGLQPQPTGFLPPSNFSATMPLTAQKTGFGNNEIYTKSNFNNNLIDNSSQDKISTEEKSLFYKIFETFDTQNKGLLDSPTAVEIFRKSGLNRADLEQIWNLCDINNTGQLNKQEFALGMHLVYGKLNGKPIPNVLPSSLIPSSTKLLDNLKNQLKTEPTTTKEKPSFGKIDALSYKNNDDDVLPNYRNRRKVYSAKNEEQSSFSSPSAKSVNHSSSTLQTDDISVDKTVEKKTAKPKYAGFSREINLKNIASLENEIKNISNPENCYDSSIPSDLTSRFDAIIAKLPNLFNEISTIDNEITNAKIQLYRKKNPSSIIGSGPNGEITENDRKKAKSRALLRARMSALTGKSTESEDSLSMEDEQQSAEIKRIQQENGKNQEIIKDIRSSISDISASLKSTMTGSNMISNQEFERWEFGIGLEDGVREFLDDLKSNSNKSVTESSPFVPSSTPTPVDDRSSSPSYSQFKTAEERAAYLKEQAKKRMKEKLAKFDKNRRNVTQSSRSISSENSREQPQQIAGSSNLVEPRATPFQEEKYVEVAQPTQPVQSTQPVQPTQPVQPTQPVQPTQPVQPTQPVQPTQPVQNVYNAKQESDDEDEDDEEKRLQEELKRLKLKKKADKEKRLAALRKQIEDAQNESDEEETNGKDNFGGHVNVPQAAPVAPSAAFSQNSTNAPRSVHAAVTPAAGKNSTGLPSTTMGHNPYFKDASASSTSTFDARAAEMQRRIQRGLDEDEDDGWSDEDESNNRVAVDNKVEEAKIGHPDHARAPPVTAAPLPSVTPVPPAVPVPQANTSNEKSSPIPIAPIPPSVTQEPPVPLAPPLPAVDGFQEPPIPSAPAIATAVQKSGSSTPALAGGVLPPPPPLPTQQASTSEPIIAHVDNYNGAEKGTGAYGSDSDDDVLSIPESVGTDEEEEGAQPVSTAGIPSIPPAGIPPPPPLP
B4: YFL010C (protein, UniProt P43582 1-211, looked up)
WW domain-containing protein …: MAQSKSNPPQVPSGWKAVFDDEYQTWYYVDLSTNSSQWEPPRGTTWPRPKGPPPGVNNEKSSRQQADQAPPPYSSQSTPQVQAGAQAQQPRYYQPQQPQYPQYPQQQRYYPQQAPMPAAAPQQAYYGTAPSTSKGSGHGGAMMGGLLGVGAGLLGGAMLEHAFDDHNYDGPDTVVVENNYYGDDAGGSDGGFDDAGGFDGGFDDGFDGSDF
B5: YLR196W (protein, UniProt P21304 1-576, looked up)
Periodic tryptophan protein 1: MISATNWVPRGFSSEFPEKYVLDDEEVERINQLAQLNLDDAKATLEEAEGESGVEDDAATGSSNKLKDQLDIDDDLKEYNLEEYDDEEIADNEGGKDVSMFPGLSNDSDVKFHEGEKGEDPYISLPNQEDSQEEKQELQVYPSDNLVLAARTEDDVSYLDIYVYDDGAGFHSSDIPVEEGDEADPDVARGLVRDPALYVHHDLMLPAFPLCVEWLDYKVGSNSEEAANYAAIGTFDPQIEIWNLDCVDKAFPDMILGEPLDNSMVSLKSKKKKKKSKTGHITTHHTDAVLSMAHNKYFRSVLASTSADHTVKLWDLNSGNAARSLASIHSNKNVSSSEWHMLNGSILLTGGYDSRVALTDVRISDESQMSKYWSAMAGEEIETVTFASENIILCGTDSGNVYSFDIRNNENRKPVWTLKAHDAGISTLCSNKFIPGMMSTGAMGEKTVKLWKFPLDDATNTKGPSMVLSRDFDVGNVLTSSFAPDIEVAGTMVIGGVNKVLKLWDVFTNRSVRKSFKSELENVQARAKEEAQKIGKSSRIARKYTSNDNPDTVITIDDQGEDEEEREGGDEHDDMA

Test system: 575 putative partners (preys) of 22 WT SH3-containing proteins
Test: DHFR-PCA on solid medium, WT and SH3-deleted baits (Fig. 1B)
Assay type: cell-based, Saccharomyces cerevisiae
Set-up: key to Score: 0: SH3-independent; 1: SH3-dependent PPIs; 2: SH3-inhibited PPIs
Conditions: bait SLA1-2, DHFR-PCA, label = prey; Replicates 4 (2 for YCR009C, YDR388W)
How it was run: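 Interactions scored by DHFR protein-fragment complementation on solid medium using robotic pinning; preys (DHFR F[3] fusions) arrayed in duplicate with control borders. Baits carried C-terminal DHFR F[1,2]-FLAG tags, tested as wild type and as SH3-deleted versions carrying a flexible Gly/Ser stuffer.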

Molecule | medrep (log2 median colony size normalized to plate background, PCA score)
B1 | 2.274
B2 | 2.528

Same assay, conditions: bait SLA1-2, label = prey

Molecule | Score
B1 | 1
B2 | 1

Same assay, conditions: bait SLA1-2, label = prey; only significant differences shown; PPIs completely lost have a ratio of 0.1, gained PPIs 2.5

Molecule | Ratio (SH3-deleted/WT medrep)
B1 | 0.1
B2 | 0.1

Same assay, conditions: bait SLA1-3, DHFR-PCA, label = prey; Replicates 4 (2 for YCR009C, YDR388W, YIL033C)

Molecule | medrep (log2 median colony size normalized to plate background, PCA score)
B1 | 2.274
B2 | 2.528
B3 | 4.7899

Same assay, conditions: bait SLA1-3, label = prey

Molecule | Score
B1 | 0
B2 | 0
B3 | 0

Test system: ABP1
Test: DHFR-PCA on solid medium, bait ABP1 (Fig. 1B)
Assay type: cell-based, Saccharomyces cerevisiae
Conditions: bait ABP1, label = prey; 2-4 replicates
Source text: (§1) Supplement 41467_2021_21873_MOESM8_ESM.xlsx, sheet "Fig1B" | column: medsize; medrep; Ratio; Score

Molecule | medrep (log2 median colony size normalized to plate background, PCA score)
B4 | 2.163
B1 | 4.768
B2 | 4.057
B5 | 3.732
B3 | 5.062

Test system: BBC1
Test: DHFR-PCA on solid medium, bait BBC1 (Fig. 1B)
Assay type: cell-based, Saccharomyces cerevisiae
Conditions: bait BBC1, label = prey; 2-4 replicates
Source text: as §1

Molecule | medrep (log2 median colony size normalized to plate background, PCA score)
B4 | 1.4009
B1 | 5.119
B2 | 1.718
B5 | 2.428
B3 | 1.896

Same assay, conditions: bait BBC1, label = prey; only significant differences showed; PPIs completely lost have a ratio of 0.1 and the gained PPIs 2.5

Molecule | Ratio (SH3-deleted/WT medrep)
B4 | 0.1
B2 | 0.1
B5 | 0.1
B3 | 0.4416
